Results taken from paper PMC10453824.

Test system: T1, rVapB47 (rRv3407) (Mycobacterium bovis BCG Moreau), ORF:ad596061
T1 sequence: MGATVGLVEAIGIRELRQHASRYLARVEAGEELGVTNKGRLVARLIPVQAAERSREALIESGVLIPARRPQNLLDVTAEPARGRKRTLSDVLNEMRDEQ
Assay: EMSA

Sequence	binding
GGTGCTACATAATTGCGTTGCGCTTACTGGTTGATCAGCCAGCGATCTCCATCGGCGCCCCGCTGATCACCCGGCTAGCCTGCCCGTACACGTCGA (double strand) [07promF-R1 (96 bp)]	no binding
TCGACGTGTACGGGCAGGCTAGCCGGGTGATCAGCGGGGCGCCGATGGAGATCGCTGGCTGATCAACCAGTAAGCGCAACGCAATTATGTAGCACCATGCGTGCTACCGTTGGGCTTGTGGA (double strand) [07promF-R2 (122 bp)]	binds
